Data published in US20200199559A1.
Where two headings read alike, the source gives them in different places.

What was measured:
[1] = molecular target: wild type Penicillium oxalicum glucoamylase (Penicillium oxalicum); assay: cell-based or functional assay
[2] = molecular target: Glucoamylase PE001: variant of the Penicillium oxalicum glucoamylase having a K79V substitution (Penicillium oxalicum); assay: cell-based or functional assay
[3] = test system: T1, wild type Penicillium oxalicum glucoamylase
T1 sequence: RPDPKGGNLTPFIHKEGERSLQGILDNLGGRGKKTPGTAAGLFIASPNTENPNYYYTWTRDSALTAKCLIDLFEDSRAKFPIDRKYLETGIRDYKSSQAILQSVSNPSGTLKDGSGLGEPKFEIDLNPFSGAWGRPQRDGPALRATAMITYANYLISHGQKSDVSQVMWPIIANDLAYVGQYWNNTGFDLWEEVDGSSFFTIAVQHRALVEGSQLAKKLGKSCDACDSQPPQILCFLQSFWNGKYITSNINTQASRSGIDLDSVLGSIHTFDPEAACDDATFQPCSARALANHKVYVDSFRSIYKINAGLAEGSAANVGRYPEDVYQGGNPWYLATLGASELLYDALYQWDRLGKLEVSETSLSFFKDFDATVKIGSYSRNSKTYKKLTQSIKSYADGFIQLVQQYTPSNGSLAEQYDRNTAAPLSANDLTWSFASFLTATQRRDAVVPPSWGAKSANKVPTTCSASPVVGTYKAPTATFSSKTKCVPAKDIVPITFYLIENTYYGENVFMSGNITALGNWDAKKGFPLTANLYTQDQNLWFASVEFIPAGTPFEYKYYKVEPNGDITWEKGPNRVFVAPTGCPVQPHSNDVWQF

[4] = molecular target: T2, wild type Penicillium oxalicum glucoamylase
T2 chain: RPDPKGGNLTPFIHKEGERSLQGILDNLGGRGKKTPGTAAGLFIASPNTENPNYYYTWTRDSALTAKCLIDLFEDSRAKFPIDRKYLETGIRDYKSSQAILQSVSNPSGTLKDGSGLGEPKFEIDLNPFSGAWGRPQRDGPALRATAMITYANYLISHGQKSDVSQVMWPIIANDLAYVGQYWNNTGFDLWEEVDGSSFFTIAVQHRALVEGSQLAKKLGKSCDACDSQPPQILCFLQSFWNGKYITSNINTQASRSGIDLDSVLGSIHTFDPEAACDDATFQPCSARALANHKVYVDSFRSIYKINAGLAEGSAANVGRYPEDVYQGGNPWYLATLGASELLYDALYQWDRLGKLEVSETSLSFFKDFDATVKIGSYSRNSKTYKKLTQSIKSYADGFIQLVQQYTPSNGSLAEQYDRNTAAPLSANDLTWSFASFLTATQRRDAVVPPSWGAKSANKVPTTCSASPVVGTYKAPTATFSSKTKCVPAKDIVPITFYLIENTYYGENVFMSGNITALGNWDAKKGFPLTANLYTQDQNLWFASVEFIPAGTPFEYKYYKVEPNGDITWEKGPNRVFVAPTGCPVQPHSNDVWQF

With aspergillopepsin I (enzyme) the intact glucoamylase (ca. 70 kDa), SDS-PAGE after protease treatment overnight at 4° C. [1] was 100%, the intact glucoamylase (ca. 70 kDa), SDS-PAGE after protease treatment overnight at 32° C. [1] was 90% and the intact glucoamylase (ca. 70 kDa), SDS-PAGE after protease treatment overnight at 4° C. [2] was 100%. The intact glucoamylase (ca. 70 kDa), SDS-PAGE after protease treatment overnight at 32° C. [2] was 100%.

With aspergillopepsin I the “cleaved glucoamylase (ca. 60 kDa), SDS-PAGE after protease treatment overnight at 32° C.” value [3] was 10%.

B1: aorsin (protein)
chain: GLNVTNCDQLITPECIRALYKIPSARAAPHPNNSLGIFEEGDYYAQEDLDLFFKTFAKDIPQGTHPIPAFIDGAEAPVPVTKAGGESDLDFELAYPIVHPQSITLYQTDDANWASNTTGFLNTFLDALDGSYCTYCAYGECGNDPSLDPVYPDDAGYDGQLMCGVFKPTNVISVSYGEQENDLPANYQQRQCMEFLKLGLQGVSVLFASGDNGVAGPPGDGNSVNGCLNNGTVFSPAFPNSCPYITNVGATKVYPGYTVSQPESAVYDPDGLYSYASGGGFSNIYPIPDYQAEAVATYFKDHNPPYPYYEGAENLGKNGGLYNRLGRGYPDVAANGDNIAVFNGGEFGSSGGTSASTPIFASIINRIIDERLAVGKGPVGFINPVLYKNPSVLNDITNGTNPGCGTDGFSTAPGWDPATGLGTPNYPKMLKLWLDLP
With B1 the “cleaved glucoamylase (ca. 60 kDa), SDS-PAGE after protease treatment overnight at 4° C.” value [4] was 60%, the “cleaved glucoamylase (ca. 60 kDa), SDS-PAGE after protease treatment overnight at 32° C.” value [4] was 90% and the intact glucoamylase (ca. 70 kDa), SDS-PAGE after protease treatment overnight at 4° C. [1] was 40%. It also gave an intact glucoamylase (ca. 70 kDa), SDS-PAGE after protease treatment overnight at 32° C. [1] of 10%, an intact glucoamylase (ca. 70 kDa), SDS-PAGE after protease treatment overnight at 4° C. [2] of 100% and an intact glucoamylase (ca. 70 kDa), SDS-PAGE after protease treatment overnight at 32° C. [2] of 100%.
